Source: PMC8162480

T1: HER2 epitope peptide (extracellular juxtamembrane region) (human, UniProt P04626)
T1 chain: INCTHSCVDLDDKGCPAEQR

B1: HB5 (FITC-labeled) (ssDNA)
DNA: AACCGCCCAAATCCCTAAGAGTCTGCACTTGTCATTTTGTATATGTATTTGGTTTTTGGCTCTCACAGACACACTACACACGCACA
B2: HB5-FITC-PL-Peptide probe (ssDNA)
DNA: AACCGCCCAAATCCCTAAGAGTCTGCACTTGTCATTTTGTATATGTATTTGGTTTTTGGCTCTCACAGACACACTACACACGCACA
modifications: 5'-thiol-C6 conjugated via maleimide to …-PL-K(FITC)FK-Mal (PL = photocleavable o-nitrobenzyl linker)

Molecular target: T1, HER2 epitope peptide (extracellular …)
Experiment: bead-bound peptide pull-down, HPLC detection

Binder | Kd
B1 | 34.7 nM
B2 | 67.4 nM
